# Assays:
# CPEB4 [1] = biological target: T1, CPEB4 (Xenopus laevis, UniProt A0A1L8GV75 1-702); experiment: AlphaScreen; 50 nM protein, 0.5-75 nM RNA; equal to or better than CPE-A; 10 mM HEPES pH 7.4, 100 mM KCl, 3 mM MgCl2, 1 mM DTT, 0.2 mg/mL tRNA, 0.1% Tween; room temperature; 50 or 75 nM protein; details: protein: recombinant; tags: 6xHis; label: 3' biotin; single strand
# CPEB4 [2] = biological target: T1, CPEB4; experiment: AlphaScreen; 50 nM protein, 0.5-75 nM RNA; CPEB4 binds A- and G-CPE equally well; 10 mM HEPES pH 7.4, 100 mM KCl, 3 mM MgCl2, 1 mM DTT, 0.2 mg/mL tRNA, 0.1% Tween; room temperature; 50 or 75 nM protein; details: protein: recombinant; tags: 6xHis; label: 3' biotin; single strand
# T1 sequence (A0A1L8GV75 entry or part of it): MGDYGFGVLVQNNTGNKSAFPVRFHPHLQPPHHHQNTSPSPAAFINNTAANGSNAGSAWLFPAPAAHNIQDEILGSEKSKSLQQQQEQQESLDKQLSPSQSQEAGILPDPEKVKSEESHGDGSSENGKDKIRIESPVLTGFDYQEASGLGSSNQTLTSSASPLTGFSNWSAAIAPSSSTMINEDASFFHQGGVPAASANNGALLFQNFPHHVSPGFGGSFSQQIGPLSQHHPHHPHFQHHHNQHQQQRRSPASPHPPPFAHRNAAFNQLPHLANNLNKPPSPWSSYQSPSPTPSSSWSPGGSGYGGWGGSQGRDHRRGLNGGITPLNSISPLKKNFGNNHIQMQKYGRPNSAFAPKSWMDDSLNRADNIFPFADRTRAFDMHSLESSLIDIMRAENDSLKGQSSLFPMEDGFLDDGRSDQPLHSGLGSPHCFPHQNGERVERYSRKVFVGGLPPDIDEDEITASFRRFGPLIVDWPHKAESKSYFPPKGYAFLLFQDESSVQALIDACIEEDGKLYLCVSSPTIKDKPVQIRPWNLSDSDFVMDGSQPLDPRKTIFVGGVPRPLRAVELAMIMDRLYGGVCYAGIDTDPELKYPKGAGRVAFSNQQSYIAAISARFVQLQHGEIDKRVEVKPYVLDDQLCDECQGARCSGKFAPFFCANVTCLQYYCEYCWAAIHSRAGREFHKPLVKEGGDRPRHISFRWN
binder,measurement,setting,value
"AGUGUACAGUGUUUUUGUAAGUUUGUUG (ssRNA, 3' biotin) [CPE-G]",binding result,CPEB4 [1],binds
"AGUGUACAGUGUUUUUAAUAGUUUGUUG (ssRNA, 3' biotin) [CPE-A]",binding result,CPEB4 [2],binds
